Source: patent US20150275192
pKd: −log10 of the molar value.

Key:
[1] = molecular target: L1-CAM (CD171) extracellular domain (UniProt P32004); test: FP; conditions: 5' DNA primer fd; remainder A = alpha-thio-dA, C = gemcitabine (2',2'-difluoro-dC), G = FANA-G, T = floxuridine (5-fluoro-dU); exact value only in figure
[2] = molecular target: T1, CD30 extracellular domain (UniProt P28908); test: FP; conditions: 5' DNA primer fd; remainder A = alpha-thio-dA, C = gemcitabine (2',2'-difluoro-dC), G = FANA-G, T = floxuridine (5-fluoro-dU); exact value only in figure
T1 sequence: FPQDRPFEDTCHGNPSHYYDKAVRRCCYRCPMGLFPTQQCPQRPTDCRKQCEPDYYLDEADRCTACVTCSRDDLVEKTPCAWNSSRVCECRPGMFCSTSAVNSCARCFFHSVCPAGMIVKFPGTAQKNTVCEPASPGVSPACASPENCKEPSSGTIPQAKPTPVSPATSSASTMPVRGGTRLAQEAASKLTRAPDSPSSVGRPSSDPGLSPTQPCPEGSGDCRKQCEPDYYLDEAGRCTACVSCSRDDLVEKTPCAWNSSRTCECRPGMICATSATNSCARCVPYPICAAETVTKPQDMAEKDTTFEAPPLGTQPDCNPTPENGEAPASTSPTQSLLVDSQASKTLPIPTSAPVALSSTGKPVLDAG

Chain of L1-CAM (CD171) extracellular domain (P32004 20-1120): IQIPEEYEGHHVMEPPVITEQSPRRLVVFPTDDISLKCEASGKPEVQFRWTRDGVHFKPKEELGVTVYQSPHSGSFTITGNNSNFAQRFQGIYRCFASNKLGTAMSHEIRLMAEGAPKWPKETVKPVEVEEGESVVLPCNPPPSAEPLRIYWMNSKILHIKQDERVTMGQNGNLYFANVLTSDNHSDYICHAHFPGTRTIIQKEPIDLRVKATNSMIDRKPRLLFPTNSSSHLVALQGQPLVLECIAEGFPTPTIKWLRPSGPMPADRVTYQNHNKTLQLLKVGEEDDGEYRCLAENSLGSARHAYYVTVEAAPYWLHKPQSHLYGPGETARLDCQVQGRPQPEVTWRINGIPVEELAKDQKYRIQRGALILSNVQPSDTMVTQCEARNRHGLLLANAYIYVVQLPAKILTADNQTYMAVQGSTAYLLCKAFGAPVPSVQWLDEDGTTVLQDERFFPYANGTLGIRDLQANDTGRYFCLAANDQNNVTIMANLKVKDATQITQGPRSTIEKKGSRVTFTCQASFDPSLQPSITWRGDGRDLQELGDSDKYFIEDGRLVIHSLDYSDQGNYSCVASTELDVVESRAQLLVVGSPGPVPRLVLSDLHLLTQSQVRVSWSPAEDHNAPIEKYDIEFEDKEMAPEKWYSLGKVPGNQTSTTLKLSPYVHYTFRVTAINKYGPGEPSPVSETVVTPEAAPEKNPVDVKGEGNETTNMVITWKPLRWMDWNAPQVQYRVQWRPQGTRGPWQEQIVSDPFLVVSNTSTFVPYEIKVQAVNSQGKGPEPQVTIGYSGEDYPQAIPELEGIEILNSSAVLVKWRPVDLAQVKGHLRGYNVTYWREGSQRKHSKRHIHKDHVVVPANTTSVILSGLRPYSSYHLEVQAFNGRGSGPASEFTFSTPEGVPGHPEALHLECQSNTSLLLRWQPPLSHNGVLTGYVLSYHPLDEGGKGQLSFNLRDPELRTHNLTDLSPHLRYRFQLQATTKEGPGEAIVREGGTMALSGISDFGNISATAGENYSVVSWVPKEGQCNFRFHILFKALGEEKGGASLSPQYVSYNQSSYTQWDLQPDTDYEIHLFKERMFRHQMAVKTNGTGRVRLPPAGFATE

“CCCCTTATTAGCGTTTGCCAACGACGCGACGCCGTTCAACCAGATATTGAAGCAGAACGCAAAAAGA [L1-CAM_Icore]” was tested, and the pKd [1] was over 7.00.
“CCCCTTATTAGCGTTTGCCAGCGACGCCGTTCAACCAGATATTGAAGCAGAACGCAAAAAGAGAGATGAGATTGAGGCT [L1CAM_I1]” gave a pKd [1] of over 7.00.
“CCCCTTATTAGCGTTTGCCATAGATGTGGTAGAAGTCGTCATTTGGCGAGAAAGCTCAGTCTCAGG [CD30_I3]” showed a pKd [2] of under 7.00.
With “CCCCTTATTAGCGTTTGCCATAGATGTGGTAGAAGTCGTCATTTGGCGAGAAAGCTCAGTCTCAGG [L1-CAM_I6]” the pKd [1] was over 7.00.
“CCCCTTATTAGCGTTTGCCATTTCATGGTATTGATAAAGCTGTTGCCGATACTTGGAACAATTTCT [CD30_I30]” was tested, and the pKd [2] was over 7.00.
